Assay: soluble on expression in E. coli; label from the status in PepcDB or PDB records

| Sequence | soluble on expression in E. coli |
| --- | --- |
| MAHHHHHHMLSTTDGTTSTLSPERTAVIELHTSASYARDTVHRLREYCNSLEATRQQLRRRLSSVPNSHNVSAVALSRARSPSSLSHLHGQAPLPPLAAAAPTLSRPFFTSEYIDPEVDATLQDVDETTALETMIVLHEDGAGTITKRMIDGSQSCISSLAVHSSSPQSQRPAATTASLLAIHSPTPVAENGTSWARQYSPLALRRMKPQQLLSHYLRDTHNAMVIADEPRAHRHSSSLCTNASSSCCVPVVRLGKPMRSASASLWNASDVNMHFPHAVPLAPSLSESPPKQAPSTGRFVVPPATPLDESDAEQLPPQSLPPRPNNHKTTAGASVFVSLAGCTAPGQFAGLQTGVTSSTMGASSRVNSQRFAMKGLRESVSPKEHGTRSRSKSSRSSAGSEALVSGKQTTSSASAAAASAPLWDPTRHSLQSPSPVMLSTSTETSAASALVVSDRLGTPVTTSGCEVGVPGASNDSVHRPRPIGTSLITAVASTSFSPLSAPAPDSEEPQPPAETAVQPHIRSPLRRLHLEAHAVRCDHASSGNRRDLYTDSLHVSGSASPAPSTPRNSEENSGDRCKRSNTTAFLDEEKREASAVSTAGACRVSAQLPVLESDVVSPDGADSFHSKDAAVSPRRSSERTVNFLSPDQVEGSLLPQPQRPTSQRLISPSPPRGVAADSNEQNPRDGNTDLKAVSAESIPKDADIDSTSPRRHLVLPQHRSPVAPPRVVIISKDDESPSPARSSLSRSLHSLPSTLSDGHCDDASDDGDDEDGSLWYSEQF | not soluble |
| MAHHHHHHMLVKENHSVILYADEENVELVKLTSDGVLTNRKGTFLHKNIIGKKYGSKIYDSACRNYIYVLRRTPEFVAISLKKKTQTLYEHDISFICLLCNALPNKKIIEAGTGTGCLTYALASCVLPKGVIHTFEYNEERYEEVRNEFSNFENVKNNIKFHHKDVISDSFVEFQPGEIDSVFLDMPNPWLCVPHVKKVLKERGVFVIFLPCIEQVYKIIEALEENQFCEIVTYELVNKSWEIIRNGGPAGGCKRARQFSLGGAKETSDPLEGVKETGDPLEGVKETGGPLEGVKETGDPLEGVKETGDPLERAKQSNDPLERAKQSSDPSNEQKNCPTPAQSQNPTYRLRQKENKTHTGYLIFSKKELSDEHEQIEIELKGV | not soluble |
| MAHHHHHHMMAAPGTSQLDSLKATARKGFYTGLSSGLMRQLIYATARLGFYPSFRDGILEGEVALGLKRSADPAGATALDRALAGASAGVFASFLSSPVEVCLVLQTTSKGKERLSMLQACNSVLKSRGVTGLWSGFGALASRAALVGVSQVAVHDQVLTMLRKRNVKRADPLGDNVVVNIASVITALFYSIVTMPVEVARVRMSAEAKLSAGAERRYHNVVQCIGRIFKEEGLLAMYDSYLPYFSRCASQTVICFFVIEYLTRELRERQKAKTNLIK | soluble |
| MAHHHHHHMMPRSENQKEEEEWELHPLFLSKIPNKKDIDKNPALSALITLINEEEEKEVFSYEPRRKNLKKKITEKGQIIYKKDRRNLYEPYQQNKNDKINYFEKKNFGGNADISKEEEVLDVEMDEEGTTVTTAEQGGDHSSQNVSNNQEATDQTSIGEVLVCLSMMNLKQ | soluble |
| MAHHHHHHMMSLAIEAVKDFLVKLQDDICEALEAEDGQATFMEDKWTREGGGGGRTRVMVNGAVIEKGGVNFSHVYGKGLPGSSTERHPDMTGCNFQAMGVSLVIHPKNPHVPTSHANVRLFVAEREGKEPVWWFGGGFDLTPYYAVEEDCRYFHQVAQDLCKPFGADVYTRFKVWCDEYFFIPYRNEARGIGGLFFDDLNEWPFEKCFEFVQAVGKGYIDAYIPIVNRRKNTPYTEQQVEFQEFRRGRYAEFNLVIDRGTKFGLQSGGRTESILISLPPRARWGYDWQPEPGTPEARLTEYFLMKRQWV | soluble |
| MAHHHHHHMMSSASLLEKVPQPWAALVRPFLQRSHEFEDKEPLVAYYLRTHVAFLCMRQRSKEDKDGTAFLMTLLDALEASKARLGAQLQGIDGRTVLTKFALMLFARADDAERTGNASMAIVRLFYTASVLFEATAQFTDDGAMDAVAAQKSKYAKYIATRMKKALDKNEPYVSPNKLETADDDAAGGVGGVNGAGPATTFTTAPASCFMRPTSQPTSVSNRAPAPTTAHENLPALPYAPPPVTQKLDTPPPPPHTPDADTQGRSKTPVHPSPMKNTYAPPQPQHTSQQQQWLSTSSAVPSLPPTPSSAQQRYAAPSSAGGGVGATGFKPSVDQMIDAQKLASQAVSALQFYDYENAKQQLVASLRVLNGVQ | soluble |

Source: the DeepSol protein solubility set
